This passage reports IC50 (M), HEK293/NFkB-luciferase bioassay results from US20050221433A1.

This test addresses recombinant human IL-18 (human) (UniProt Q14116). As to the kind of experiment: cell-based or functional assay.

recombinant human IL-18 (human), sequence (Q14116 37-193 limits assumed): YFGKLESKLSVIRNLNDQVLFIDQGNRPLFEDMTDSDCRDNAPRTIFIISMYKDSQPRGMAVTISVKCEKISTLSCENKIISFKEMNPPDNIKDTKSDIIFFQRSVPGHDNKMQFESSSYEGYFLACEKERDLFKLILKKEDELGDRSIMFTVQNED

B1: mIL18BPd (C45S).mFc (Fc fusion, not shown: a dimerising Fc or GST)
chain: TSAPQTTATVLTGSSKDPSSSWSPAVPTKQYPALDVIWPEKEVPLNGTLTLSCTACSRFPYFSILYWLGNGSFIEHLPGRLKEGHTSREHRNTSTWLHRALVLEELSPTLRSTNFSCLFVDPGQVAQYHIILAQLWDGLKTAPPPSQETLSSHSPVSRSAGPGVA
Consider B1, for which the IC50 (M), HEK293/NFkB-luciferase bioassay was determined as 1.67e-10 M.

B2: mIL18BPd.mFc (Fc fusion, not shown: a dimerising Fc or GST)
chain: TSAPQTTATVLTGSSKDPCSSWSPAVPTKQYPALDVIWPEKEVPLNGTLTLSCTACSRFPYFSILYWLGNGSFIEHLPGRLKEGHTSREHRNTSTWLHRALVLEELSPTLRSTNFSCLFVDPGQVAQYHIILAQLWDGLKTAPPPSQETLSSHSPVSRSAGPGVA
With B2, the IC50 (M), HEK293/NFkB-luciferase bioassay was determined as 9.6e-11 M.
